Usually Kd stands for the concentration at which binding is half-saturated. A word on the stoichiometry N: it is the number of molecules, sites or subunits per partner or assembly. For orientation: IC50 means the concentration needed to halve the response being measured. High values mean lower potency, low ones higher potency.

Six molecules from doi:10.1101/2022.08.30.505748 (bioRxiv, 2022) can be followed below.

Substitutions are numbered along the chain they refer to. In names and notes the source's numbering stands. Read-outs that look alike come from different tables or passages of the source.

The target of data set [1] is activated caspase-3 (WT), His6-tagged, RED-tris-NTA labelled (UniProt P42574). As to the kind of experiment: MST.
For data set [2], the target named is activated caspase-9, His6-tagged, RED-tris-NTA labelled (UniProt P55211). As to the kind of experiment: MST.
Data set [3] addresses activated caspase-7, His6-tagged, RED-tris-NTA labelled (UniProt P55210). As to the kind of experiment: MST.
Data set [4] concerns the target Alexa555-SMAC (WT), a.a. 56-239 with a C-terminal cysteine (UniProt Q9NR28). As to the kind of experiment: fluorescence polarisation. A general note: In fluorescence polarisation assays a small probe gives low polarisation when free and higher when bound to something large.
Data set [5] deals with BIRC6 (Baculoviral IAP repeat-containing protein 6), full-length, wild-type, tag removed (UniProt Q9NR09). As to the kind of experiment: cryo-EM structure. Particulars: remark: other sources report otherwise.
For data set [6] the target is unchanged. Put plainly: cryo-EM structure. Particulars: remark: other sources report otherwise. The source holds these as a separate data set.
For data set [7] the target is unchanged. As to the kind of experiment: SEC-MALS. Particulars: remark: other sources report otherwise. A general note: In gel filtration, larger molecules generally elute earlier.
For data set [8], the target named is T1, BIRC6 (Baculoviral IAP repeat-containing protein 6), full-length, wild-type, tag removed (UniProt Q9NR09 1-4857). Put plainly: fluorescence polarisation.
The data set “cryo-EM structure” deals with the molecule itself. Put plainly: cryo-EM structure.
Data set [9] concerns the target T1, BIRC6 (Baculoviral IAP …). Put plainly: fluorescence polarisation. The source holds these as a separate data set.

T1 sequence (Q9NR09 whole entry): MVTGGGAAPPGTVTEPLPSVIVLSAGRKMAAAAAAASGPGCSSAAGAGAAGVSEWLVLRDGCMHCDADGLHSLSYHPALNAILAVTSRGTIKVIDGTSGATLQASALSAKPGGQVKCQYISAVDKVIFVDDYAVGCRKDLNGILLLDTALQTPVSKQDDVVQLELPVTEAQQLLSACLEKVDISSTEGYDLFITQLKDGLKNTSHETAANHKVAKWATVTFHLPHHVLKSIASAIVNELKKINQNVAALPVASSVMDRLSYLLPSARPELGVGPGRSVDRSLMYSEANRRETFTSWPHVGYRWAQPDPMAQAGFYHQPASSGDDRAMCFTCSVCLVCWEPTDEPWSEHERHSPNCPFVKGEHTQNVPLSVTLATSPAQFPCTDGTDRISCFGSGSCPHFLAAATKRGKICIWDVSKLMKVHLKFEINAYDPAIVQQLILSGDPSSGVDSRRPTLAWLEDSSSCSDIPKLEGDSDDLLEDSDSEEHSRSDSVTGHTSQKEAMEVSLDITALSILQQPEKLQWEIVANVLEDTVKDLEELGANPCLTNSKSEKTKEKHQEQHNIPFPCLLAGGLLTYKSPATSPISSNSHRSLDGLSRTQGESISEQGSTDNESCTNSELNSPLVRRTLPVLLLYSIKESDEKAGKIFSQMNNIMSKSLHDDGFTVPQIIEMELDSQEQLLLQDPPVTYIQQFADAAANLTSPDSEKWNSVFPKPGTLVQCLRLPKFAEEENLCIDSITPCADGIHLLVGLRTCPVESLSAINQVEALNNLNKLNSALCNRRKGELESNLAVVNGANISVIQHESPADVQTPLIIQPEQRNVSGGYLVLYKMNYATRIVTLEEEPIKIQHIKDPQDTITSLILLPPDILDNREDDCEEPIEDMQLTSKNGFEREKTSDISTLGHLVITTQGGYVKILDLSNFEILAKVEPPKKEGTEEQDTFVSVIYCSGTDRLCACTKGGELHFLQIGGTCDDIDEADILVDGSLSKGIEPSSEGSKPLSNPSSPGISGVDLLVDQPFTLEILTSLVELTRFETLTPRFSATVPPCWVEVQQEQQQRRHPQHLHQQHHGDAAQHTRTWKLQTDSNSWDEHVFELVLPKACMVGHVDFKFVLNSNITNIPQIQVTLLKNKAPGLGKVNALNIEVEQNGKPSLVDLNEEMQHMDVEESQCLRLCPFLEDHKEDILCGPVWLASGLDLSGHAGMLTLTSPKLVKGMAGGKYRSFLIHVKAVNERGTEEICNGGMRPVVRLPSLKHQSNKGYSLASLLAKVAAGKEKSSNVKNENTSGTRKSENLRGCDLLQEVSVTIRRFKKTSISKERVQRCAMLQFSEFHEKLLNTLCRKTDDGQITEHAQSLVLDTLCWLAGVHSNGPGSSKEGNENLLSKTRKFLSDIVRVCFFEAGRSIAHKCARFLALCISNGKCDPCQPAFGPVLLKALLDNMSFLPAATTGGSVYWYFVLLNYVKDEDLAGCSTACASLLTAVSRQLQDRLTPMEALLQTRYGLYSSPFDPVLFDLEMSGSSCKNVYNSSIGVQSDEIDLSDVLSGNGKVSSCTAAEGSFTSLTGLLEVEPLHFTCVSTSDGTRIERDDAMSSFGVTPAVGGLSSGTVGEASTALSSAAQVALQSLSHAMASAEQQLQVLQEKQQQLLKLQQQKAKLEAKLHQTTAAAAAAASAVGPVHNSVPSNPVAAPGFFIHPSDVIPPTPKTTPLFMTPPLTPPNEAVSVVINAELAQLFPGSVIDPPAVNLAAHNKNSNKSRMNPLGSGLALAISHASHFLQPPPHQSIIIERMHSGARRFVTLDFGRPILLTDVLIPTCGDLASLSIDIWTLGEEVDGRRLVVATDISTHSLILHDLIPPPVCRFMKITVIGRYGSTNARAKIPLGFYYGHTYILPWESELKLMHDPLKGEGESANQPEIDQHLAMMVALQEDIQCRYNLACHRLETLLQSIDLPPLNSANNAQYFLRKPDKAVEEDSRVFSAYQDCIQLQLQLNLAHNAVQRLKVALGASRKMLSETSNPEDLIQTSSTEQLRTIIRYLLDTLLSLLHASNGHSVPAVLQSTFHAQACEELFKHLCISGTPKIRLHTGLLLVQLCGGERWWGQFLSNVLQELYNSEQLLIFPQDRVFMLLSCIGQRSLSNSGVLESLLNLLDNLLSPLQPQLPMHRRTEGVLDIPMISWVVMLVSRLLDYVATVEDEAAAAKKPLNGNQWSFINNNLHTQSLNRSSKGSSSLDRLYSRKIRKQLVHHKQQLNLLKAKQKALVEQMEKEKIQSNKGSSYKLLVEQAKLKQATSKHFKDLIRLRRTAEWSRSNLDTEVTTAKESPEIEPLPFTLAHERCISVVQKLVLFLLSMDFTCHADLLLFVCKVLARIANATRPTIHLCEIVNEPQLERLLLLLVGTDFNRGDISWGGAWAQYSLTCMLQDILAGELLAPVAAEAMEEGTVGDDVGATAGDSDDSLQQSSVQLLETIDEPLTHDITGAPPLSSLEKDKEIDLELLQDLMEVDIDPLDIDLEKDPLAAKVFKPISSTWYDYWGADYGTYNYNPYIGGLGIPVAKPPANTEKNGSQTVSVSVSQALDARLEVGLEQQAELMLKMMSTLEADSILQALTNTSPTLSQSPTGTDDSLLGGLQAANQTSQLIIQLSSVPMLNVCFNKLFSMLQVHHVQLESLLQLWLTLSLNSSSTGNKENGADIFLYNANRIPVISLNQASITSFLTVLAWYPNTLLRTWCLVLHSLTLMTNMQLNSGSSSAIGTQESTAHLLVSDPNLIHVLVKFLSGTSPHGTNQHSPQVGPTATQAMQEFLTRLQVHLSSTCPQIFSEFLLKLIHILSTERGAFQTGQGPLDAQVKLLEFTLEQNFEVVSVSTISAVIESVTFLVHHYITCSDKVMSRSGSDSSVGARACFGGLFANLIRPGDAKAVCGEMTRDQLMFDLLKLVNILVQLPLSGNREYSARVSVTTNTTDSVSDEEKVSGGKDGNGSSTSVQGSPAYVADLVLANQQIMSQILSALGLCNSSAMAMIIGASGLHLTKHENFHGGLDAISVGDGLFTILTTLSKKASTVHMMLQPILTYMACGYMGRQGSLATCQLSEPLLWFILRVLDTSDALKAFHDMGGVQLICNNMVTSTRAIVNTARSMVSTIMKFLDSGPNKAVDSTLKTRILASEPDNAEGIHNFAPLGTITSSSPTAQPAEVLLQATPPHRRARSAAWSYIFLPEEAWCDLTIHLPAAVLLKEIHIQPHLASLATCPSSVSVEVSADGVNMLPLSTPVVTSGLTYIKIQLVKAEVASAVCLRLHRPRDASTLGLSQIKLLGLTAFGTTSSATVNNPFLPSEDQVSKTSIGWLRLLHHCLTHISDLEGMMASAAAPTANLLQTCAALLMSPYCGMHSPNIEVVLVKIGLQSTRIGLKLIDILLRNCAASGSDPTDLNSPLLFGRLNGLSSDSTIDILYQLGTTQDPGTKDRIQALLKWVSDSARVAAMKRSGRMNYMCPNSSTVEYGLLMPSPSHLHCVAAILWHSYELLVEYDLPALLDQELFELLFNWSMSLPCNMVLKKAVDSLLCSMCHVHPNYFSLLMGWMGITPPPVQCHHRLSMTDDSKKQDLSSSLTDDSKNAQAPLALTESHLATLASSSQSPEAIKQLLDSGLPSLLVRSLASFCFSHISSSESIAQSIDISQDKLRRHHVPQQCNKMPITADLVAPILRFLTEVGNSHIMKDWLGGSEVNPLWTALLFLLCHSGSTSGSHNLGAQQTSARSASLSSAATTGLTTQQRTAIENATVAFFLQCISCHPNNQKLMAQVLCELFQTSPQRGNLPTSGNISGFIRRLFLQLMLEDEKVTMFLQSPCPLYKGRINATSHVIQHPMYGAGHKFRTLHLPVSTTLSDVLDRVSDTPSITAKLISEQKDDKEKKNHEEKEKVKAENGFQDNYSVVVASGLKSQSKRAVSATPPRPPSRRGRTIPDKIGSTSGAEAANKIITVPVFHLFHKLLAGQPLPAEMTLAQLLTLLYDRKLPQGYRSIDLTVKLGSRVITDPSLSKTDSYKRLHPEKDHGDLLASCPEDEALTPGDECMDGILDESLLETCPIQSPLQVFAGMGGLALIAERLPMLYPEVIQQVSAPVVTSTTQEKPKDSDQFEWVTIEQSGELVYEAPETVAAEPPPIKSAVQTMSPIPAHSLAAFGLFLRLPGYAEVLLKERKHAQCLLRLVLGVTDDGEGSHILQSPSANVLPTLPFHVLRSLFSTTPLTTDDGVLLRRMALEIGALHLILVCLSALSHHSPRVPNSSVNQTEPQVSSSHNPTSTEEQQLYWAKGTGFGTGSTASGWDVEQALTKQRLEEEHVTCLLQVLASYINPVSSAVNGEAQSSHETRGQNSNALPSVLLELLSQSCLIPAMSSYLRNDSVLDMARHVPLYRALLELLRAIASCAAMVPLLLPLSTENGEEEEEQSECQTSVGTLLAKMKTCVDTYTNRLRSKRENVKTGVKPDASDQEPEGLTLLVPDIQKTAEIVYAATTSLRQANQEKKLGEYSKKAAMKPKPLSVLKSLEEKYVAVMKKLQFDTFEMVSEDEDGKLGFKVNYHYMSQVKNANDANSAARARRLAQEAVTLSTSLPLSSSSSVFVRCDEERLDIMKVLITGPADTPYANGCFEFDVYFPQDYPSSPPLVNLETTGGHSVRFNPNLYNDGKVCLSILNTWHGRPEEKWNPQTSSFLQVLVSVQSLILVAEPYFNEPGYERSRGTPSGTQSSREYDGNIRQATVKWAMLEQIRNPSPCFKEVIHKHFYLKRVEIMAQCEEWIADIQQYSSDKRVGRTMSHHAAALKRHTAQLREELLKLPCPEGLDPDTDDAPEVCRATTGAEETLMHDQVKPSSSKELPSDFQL
activated caspase-3 (WT), His6-tagged, RED-tris-NTA labelled, sequence (P42574 whole entry): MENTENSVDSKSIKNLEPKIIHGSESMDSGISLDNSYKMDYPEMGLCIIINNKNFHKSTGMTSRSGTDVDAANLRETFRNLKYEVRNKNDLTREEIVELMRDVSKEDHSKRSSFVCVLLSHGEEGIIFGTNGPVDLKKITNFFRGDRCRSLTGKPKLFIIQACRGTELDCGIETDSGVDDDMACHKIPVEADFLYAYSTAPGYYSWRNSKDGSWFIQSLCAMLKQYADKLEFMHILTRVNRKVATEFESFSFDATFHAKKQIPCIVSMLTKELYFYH

For the molecule “BIRC6 (Baculoviral IAP repeat-containing protein 6), full-length, wild-type, tag removed (from UniProt Q9NR09 1-4857) (enzyme)”, the Kd came out at 8.9 nM in data set [1], 46.4 nM in [2] and 17.1 nM in data set [3].

In [4], “BIRC6 (Baculoviral IAP repeat-containing protein 6), full-length, wild-type, tag removed, Q9NR09 1-4857” gave a fold greater affinity than for monomeric SMAC (V81D) of over 10 fold. Moreover, the stoichiometry N in data set [5], in data set [6] and in [7] was 2 in each case.

B1: Alexa555-SMAC (WT), a.a. 56-239 with a C-terminal cysteine (natural protein)
chain: AVPIAQKSEPHSLSSEALMRRAVSLVTDSTSTFLSQTTYALIEAITEYTKAVYTLTSLYRQYTSLLGKMNSEEEDEVWQVIIGARAEMTSKHQEYLKLETTWMTAVGLSEMAAEAAYQTGADQASITARNHIQLVKLQVEEVHQLSRKAETKLAEAQIEELRQKTQEEGEERAESEQEAYLREDC
modifications: Alexa Fluor 555 on the C-terminal cysteine
B1: in [8], the binding result is recorded as “binds”.

As for AVPIAQKSEC (Cy3 on the C-terminal cysteine; C-terminal amide) [Cy3-labelled SMAC N-terminal peptide, AVPIAQKSEC(Cy3)-Am], the dissociation constant Kd in data set [8] was 35.6 ± 3 nM.

B2: Alexa 555 monomeric SMAC (V81D), a.a. 56-239 with a C-terminal cysteine (natural protein)
chain: B1 chain with V26D
modifications: Alexa Fluor 555 on the C-terminal cysteine
For B2, the Kd in data set [8] worked out at 12.1 ± 1.5 nM.

B3: SMAC (second mitochondria-derived activator of caspase), a.a. 56-239, wild-type, unlabelled (natural protein)
chain: AVPIAQKSEPHSLSSEALMRRAVSLVTDSTSTFLSQTTYALIEAITEYTKAVYTLTSLYRQYTSLLGKMNSEEEDEVWQVIIGARAEMTSKHQEYLKLETTWMTAVGLSEMAAEAAYQTGADQASITARNHIQLVKLQVEEVHQLSRKAETKLAEAQIEELRQKTQEEGEERAESEQEAYLRED
With B3, in “cryo-EM structure”, the “stoichiometry N” value was 2. In data set [9], half-maximal inhibition (IC50) was put at 8.3 nM and the dissociation constant (Kd) is about 0.6 nM.
